Measured values: the DeepSol protein solubility set

experiment: soluble on expression in E. coli; label from the status in PepcDB or PDB records

Sequence | soluble on expression in E. coli
MSLDSIELMAKIHASARWSEAALQILADETRRILKHEAGTRAGEDPEQLHQMRVGIRRLRSALRLFEPALKLPKPARRRSLSPLAAVLGSVRDLDVQMEMLRERYLGALPEGEQQALERLLAHLESLRTQARSAMLRYLDGLDYEQFKSAYTEFLESPKFRRGADESLYHLLPAFLREALSTLWAHPGWEEPDVETMHDLRIAVKRVRYNLEFFLGCYGKAVRSLHGELKRIQEELGIIHDCDVLLGQLHTEPLGPATPWQQPFSRLTALVRNERRNAVRRFRRLKTRLLSEDMRNSLAVWVSWPGTADDEGHHHHHH | not soluble
MSLDSISLHKIFYKVLKNNTLPECQVIAAEGLCKLYLADIFNDDDLFETLILSYFSPSNSSNEGLIQAFAFCIPVYSYSHVLHQQRITKIASDVLLRLYMLWVDFQANEETDENIETMLKPNVILQQLISWTDPRKLIGENEKAINDNYQLNFLLDIFQQFPKFDKKNIKKMILTNINAFYVSSDNDMHKLREIKEHLEDIIENEIIDTMTLNSLEKFKNTIIDCLEEAKEKSENQTKDEIESSDGEYSMILESSNIGNISDVEKDVNVEAAQFSDSENDFEDSDDDTSRKRNRSKLEESIANNTSEKLSVNEDYDSEDTNEPKNDAKDINEPEDGTKDVIMEDSVSSNVIENSKNVSFILPDNDYSSSESSMSVDDESYKEEGHHHHHH | soluble
MSLDSPFGPEDDICILHFNDVYNIEEDVNGTGGVARFVEALKSFRSLNPLLLFSGDVFNPSIMSVTTKGRHMVPFLNMMRVHTACFGNHDFDFGVDHLEYLAGSCNFQWILSNVYDAYTGEPLANARTYRLFEWQGRRIGIMGLVEKDWLKTLPTISEEDVIYKDFVEEANRISKILREKDAELIIALTHMRAPNDELLAKGADDIDLILGGHDHEYYGVKEIGNSVVAKSGTDFRDLTMIVIKPGKHCLVCPNSDSKLHLESCRYSSFSLDQPQNIYEERLIPNNKDGGDIYLREGHHHHHH | soluble
MSLDSPPIRVFVVEDQTKILKNQLRLFENHPEMDIIGTALSGEAALEEVPKLMPDVLLLDLGLPRMSGIDVTREVKARFPKIEILIFTIFDEEDKVLEAVKAGASGYLLKGAPVDKIIEAIKEVRAGGTVIQPNLARRLLRHFRVEPDASPLISPPAAPEPSASDLPQEPLLKPLSDREREILQLIAKGVSNSEAARLLDLSKATIRTHLEHIYRKLEVTNRVEAVTEGIRKGLISEGHHHHHH | soluble
MSLDSRLPAFRNLSPAARLDHIGQLLGLSHDDVSLLANAGALPMDIANGMIENVIGTFELPYAVASNFQINGRDVLVPLVVEEPSIVAAASYMAKLARANGGFTTSSSAPLMHAQVQIVGIQDPLNARLSLLRRKDEIIELANRKDQLLNSLGGGCRDIEVHTFADTPRGPMLVAHLIVDVRDAMGANTVNTMAEAVAPLMEAITGGQVRLRILSNLADLRLARAQVRITPQQLETAEFSGEAVIEGILDAYAFAAVDPYRAATHNKGIMNGIDPLIVATGNDWRAVEAGAHAYACRSGHYGSLTTWEKDNNGHLVGTLEMPMPVGLVGGATKTHPLAQLSLRILGVKTAQALAEIAVAVGLAQNLGAMRALATEGIQRGHMALHARNIAVVAGARGDEVDWVARQLVEYHDVRADRAVALLKQKRGQ | soluble
MSLDTGVTSVMFVERSLNEIRFWSRIMKEHSFFLRLGFRCEDTQLIEEANQFYRLFEHIEQIAHSYTNETDPEQIKRFNAEVQQAATNIWGFKRKILGLILTCKLPGQNNFPLLVDHTSREADYFRKRLIQLNEGKLDALPDAIIKENVFFLRIMADHAKFIGHLLDPSERKLVDTARNFSNDFDELMYQAIDLESMKPQSQTAPLLDQFLDQNRVSVASLRDFKKTARDLIEQCKIKSIIHPLLADHVFREADRFLEIIDMYDVHLTNIQSQPREGHHHHHH | soluble
MSLDTHSLRFSKEGTFQITVFSDLHFAEYENTAQGAKQDSRTAGVVRKVLQHEASTQLVVLNGDLISGYGTTSDNATRYLDQVLAPIQALGLPWAVTYGNHDNERFARSRELLDYESRTYPNYSLTRNMGPRDLEAGVSNYYLEVFAAETSHVPEMLLWFFDSRGGAQPHDWVHDSVVQWFIDTNANLTNKYNKAVPSIAFFHIPITATYDFQLYPGVDTSREPGINGEKVWWQGRGYDGKTGHDLKFMAALSATEGMLATFSGHDHDNDWCFKWKSPSATSSSAGLNVCYGRHTGYGGYGGLARGARQILLKQSTIKDEVATWIRLEDGLVPENVTLNATYGQDEEGHHHHHH | not soluble
MSLDTMIASLEQSKKRAEEELSETESIRKEAEKLHKELQQQIIELNSKKDKMLEEAEQQAAEKVKAAMKEAEDIIHELRTIKEEHKSFKDHELINAKKRLEGAMPAFEKSKKPEKPKTQKRDFKPGDEVKVLTFGQKGTLLEKTGGNEWNVQIGILKMKVKEKDLEFIKSAPEPKKEKMITAVKGKDYHVSLELDLRGERYENALSRVEKYLDDAVLAGYPRVSIIHGKGTGALRKGVQDLLKNHRSVKSSRFGEAGEGGSGVTVVELKEGHHHHHH | soluble
MSLDTPDYKRVVLKLSGEALAGNDGFGINPSVVNLISAQIKEVVELGVEVAIVVGGGNIWRGKLGSEMGMDRAAADQMGMLATIMNSLSLQDSLENIGVATRVQTSIDMRQIAEPYIRRKAIRHLEKGRVVIFAGGTGNPYFSTDTAAALRAAEIEADVILMAKNNVDGVYNADPKLDENAKKYEELSYLDVIKEGLEVMDTTASSLSMDNDIPLIVFSFTEQGNNIKRVILGEKIGTTVRGKKEGHHHHHH | soluble
MSLDVRIVDIDSEKPPEAKRCFLLSDVHGRADDIDTKYFNYDFDFLFFAGDMSNKSKYHEIKSFKKWINKMKAKYKIVVAGNHDLVFDREEFNDIIIGNHTAQEIRDLILKDKNIIYLEHEEITIEGIKIFGTPLSNIRIHQAFKEPYEDENDPHEEYLFFSIPDSTNIVLSHGVMKGYLDKEPNSRCKGSYGLRHAIDRVKPDLLICGHMHGCQGHTTHNNTTVILPSFCKRDKFGEETNNPYIIDIIPKLSLRMSIWKKSEKIPKMLKMNFPNVFFYLIFLILKKIWREELFVFEFYHDGEGHHHHHH | soluble
MSLDVSYSFTPLTGYKDSLVNQHVKLPLNYPTIDNHNPKKSTTPNNEFHKKIATTGKIINLPKQSIVPAVSISVYNDMKTIVLTPMEFQLSSIGFQFQNLIIDLPHSTISTNCITFYYHQDHILIDLIDQNYLFITLKIAIDRFILGGQQLTLDNFEEWGYISVPYSFELRSSPFLLKCLDNLNLIVSLKDGGLLHFKRDEELGEINVFNFQEQGTLIPFLGFFGSGKQKDVVLDGVSSNSIVDALQIGGSGVVITLSVNKVLKLWNLDGHQNLSSLTIASDDNTWLPTIPSKYLKSYDQEDGKTIITLFINTKSGDSSKSMFVFKSFELESSNLHDLSDLSFQPELPNSLLFSSDVFYHESNFQNTIWFIQDYEVVGFGTSQLKYYILWKSNTSSILVEYTINPVNGAILSIEISHPNGFEIDENISAYHDAEYYMDRIFDSGNYDSLIVLTSIKILSQHWEIDNEGHHHHHH | soluble
MSLEAKRPEQTRVVVGMSGGVDSSVTALLLKEQGYDVIGIFMKNWDDTDENGVCTATEDYQDVVQVCNQLGIAYYAVNFEKEYWDKVFTYFLEEYKAGRTPNPDVMCNKEIKFKAFLNHALTLGADYVATGHYAQVKNVDGQYQLIRGKDPNKDQTYFLNALSQQQLSRVMFPLGHLEKKEVRAIAERAGLATAKKKDSTGICFIGKRDFKEFLSSYLPAQPGEMQTLDGEVKGTHDGLMYYTLGQRQGLGIGGSGEPWFVIGKNLEKNILYVGQGFHHPGLYSEGLRAIKVNWILRRESDEPFECTAKFRYRQPDQKVTVYPQSDGAVEVLFAEPQRAITPGQAVVFYDGDVCLGGGTIDHVLKKKEDRESAEGHHHHHH | soluble
MSLEDKDLRSIQEVRNLIESANKAQKELAAMSQQQIDTIVKAIADAGYGAREKLAKMAHEETGFGIWQDKVIKNVFASKHVYNYIKDMKTIGMLKEDNEKKVMEVAVPLGVVAGLIPSTNPTSTVIYKTLISIKAGNSIVFSPHPNALKAILETVRIISEAAEKAGCPKGAISCMTVPTIQGTDQLMKHKDTAVILATGGSAMVKAAYSSGTPAIGVGPGNGPAFIERSANIPRAVKHILDSKTFDNGTICASEQSVVVERVNKEAVIAEFRKQGAHFLSDAEAVQLGKFILRPNGSMNPAIVGKSVQHIANLAGLTVPADARVLIAEETKVGAKIPYSREKLAPILAFYTAETWQEACELSMDILYHEGAGHTLIIHSEDKEIIREFALKKPVSRLLVNTPGALGGIGATTNLVPALTLGCGAVGGSSSSDNIGPENLFNIRRIATGVLELEDIRKEENQATSELPVDADALIQSLVEKVLAELKEGHHHHHH | soluble
MSLEEINKIEVIEKSIEENTEKYEIKVKYPSIQGGEKEVTDKINKTIEDYTLNWINDIKLLGEEYSKEYEKAGKEMPKMEAYSLFEAFNTDEVISLPVSYYQYTGGAHGLTTKVSYNYNLKTGKELKLKDLFKEGFDYKSIIDKKVRGDIEKEKELYFDNGALFKGVNENQAYYLNRDGIIVYFQQYEIAPYSSGIREFKIPYGELKEGLIYKLGNEGHHHHHH | soluble
MSLEEPFEIPPVEDTESVAKVDVRVDGIRDDRLSENVRIYLEAMDKNEADGSERHQYLLRENISKALRVFGYYNSQVYFDLQPRSGKKDLLIASVNVGEPVRIDSTDIEISGEAAEDEEFRKLDKNVPAKGAVLEHEIYDDYKSSLEKLARQRGYFDADFPVHELQVMPSTNQGWWHLVFNSGQRYHYGDISFHGSQIREDYLRNILKIQSGDPYLINDVSGMTSDYSSTNWFQSVLVKPTLHEDSKLVDLAVLLRPRKKNSMELGIGYGSDSGPHTQIGWTRPWINSRGHSVRSNLYISSPKQNFEATYKMPLLKNPLNYYYEFSTGFEHEDDTKTDTQSTAATVAALRFWNHPTGWQYSAGLRARYDNFTQADVDEKTLLIYPTATVSRSRISGGTFADRADTISVTVDLGRKMWASDVNFFRIRANAGWIKTFATNHRFLTRGDIGYLHTDEFNRIPPALRFFAGGDRSVRGYGYKKIAPKDSRNGKLVGGSRLATGTLEYQYQVVQDWWAATFFDAGFAANRFSSDELRYGAGVGVRWASPVGPIKFDIATPVRDKDDSKNIQFYIGLGTEEGHHHHHH | not soluble
MSLEEVLKDIERDKEEKKKEIADAASRETAKIEKEREEKIQILQREYENRMREEGSRLYNSIIDKANVEARNIVRMRVQEILDQYGAKADELIKNLAKTKEYDDVLKKMIEVSRKALGPDCIVKVNTADKGRISDGNIKFEDIDPYGGVLATSRDGKIELDLRISSIRRDILERFKVRLYSMIED | not soluble
MSLEFIPRSEQRPIVDTSSTTLDLIYFDLVTLASNEQDIRRLPAHESLYVVLSGQVDIEVDGIMFEAVGRRADIWGGDADSVYAPVGANVRISARGAAAEVAIAGGLCDTRYAAFRITPDEVDAVNVGSSDTHSQRRIVHLLGQRQNGRCGNLLVSELYAGEGCWSGYPPHKHDTEDGDVETRHEELYHYRFQPETGFGSQITYDEDGPVKILMTRNGDTVLVDRGYHPTVTSPGHQGYIFTILVGKHRRGLIQRFDPAHQHLTKTIPGEGHHHHHH | soluble
MSLEHPLQRFFHSMRAKRPFDWVRFQRRDLLLIDHPLCQAVFSRQGAQLLHFQPQGERPLLWCAGEWPALSSAPVRGGIPVCWPWFGSHPNGSEWPQQGWARQREWRLLDAYADESKVVVSWQLDLEDWHVRLDARLGQRLELELCSYHEEDDDCLFSFALQPYWRVGALSRVVVHGMELESARGQRGASRIPGTWIPRGAVKQVLYHPGSLVLEDGGWNRRLRIDKNVSAGSVIWHPGSRPVEQVEPGEAERFLCIGAAGYRPGGLILAPGERMRLSLAAGLQEGHHHHHH | soluble
